# Results taken from paper PMC5270629.
# What was measured:
# [1] = biological target: recombinant von Willebrand factor (VWF) A2 domain polypeptide, A2_(1481-1668) (human) (UniProt P04275); experiment: ELISA
# fibrin monomer = fibrin monomer (UniProt P02675); experiment: ELISA
# Sequence of recombinant von Willebrand factor (VWF) A2 domain polypeptide, A2_(1481-1668) (P04275 1481-1668): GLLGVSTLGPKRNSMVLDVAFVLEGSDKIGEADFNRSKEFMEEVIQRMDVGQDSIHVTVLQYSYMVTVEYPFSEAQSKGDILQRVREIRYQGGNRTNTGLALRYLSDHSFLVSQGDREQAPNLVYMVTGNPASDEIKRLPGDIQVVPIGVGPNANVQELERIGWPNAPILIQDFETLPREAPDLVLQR
# Sequence of recombinant von Willebrand factor (VWF) A2 domain polypeptide, A2_(1481-1668) (human) (P04275 1481-1668): as above
Substance,EC50 [1] [nM],EC50 (fibrin monomer) [nM]
fibrin monomer (from UniProt P02675 45-491; P02679 27-453) (complex),7,–
"recombinant von Willebrand factor (VWF) A2 domain polypeptide, A2_(1481-1668) (from UniProt P04275 1481-1668) (domain or fragment)",–,60
